Test results from US20240092890A1 (JUNTENDO EDUCATIONAL FOUNDATION, published 2024).
Substitutions are numbered along the chain they refer to.

B1: Antibody 62 (bispecific antibody)
chain 1: not shown
chain 2: DIQMTQSPSFVSASVGDRVTITCLASEDIYSYLAWYQQKPGKAPKLLIFAANRLQDGVPSRFSGGGSGTGFTLTISSLQPEDFATYFCLQGSKFPYTFGQGTKLEINRTVAAPSVFIFPPSDEQLKSGTASVVCLLNNFYPREAKVQWKVDNALQSGNSQESVTEQDSKDSTYSLSSTLTLSKADYEKHKVYACEVTHQGLSSPVTKSFNRGEC
B2: Antibody 82 (bispecific antibody)
chain 1: not shown
chain 2: B1 chain 2 with F10S, V11L, D56S, G65S, G70D, F87Y, Q100P, L104V, E105D, N107K
B3: Antibody 74 (bispecific antibody)
chain 1: not shown
chain 2: B1 chain 2 with D56S, N107K
B4: Antibody 83 (bispecific antibody)
chain 1: not shown
chain 2: B1 chain 2 with F10S, V11L, D56S, G65S, G70D, F87Y, Q100P, L104V, E105D, N107K
B5: Antibody 72 (bispecific antibody)
chain 1: not shown
chain 2: B1 chain 2 with D56S
B6: Antibody 63 (bispecific antibody)
chain 1: not shown
chain 2: B1 chain 2
B7: Antibody 59 (bispecific antibody)
chain 1: not shown
chain 2: B1 chain 2
B8: Antibody 64 (bispecific antibody)
chain 1: not shown
chain 2: B1 chain 2
B9: Antibody 77 (bispecific antibody)
chain 1: not shown
chain 2: B1 chain 2 with D56S, N107K
B10: Antibody 66 (bispecific antibody)
chain 1: not shown
chain 2: B1 chain 2
B11: Antibody 70 (bispecific antibody)
chain 1: not shown
chain 2: B1 chain 2 with D56S
B12: Antibody 57 (bispecific antibody)
chain 1: not shown
chain 2: B1 chain 2
B13: Antibody 58 (bispecific antibody)
chain 1: not shown
chain 2: B1 chain 2
B14: Antibody 56 (bispecific antibody)
chain 1: not shown
chain 2: B1 chain 2
B15: Antibody 78 (bispecific antibody)
chain 1: not shown
chain 2: B1 chain 2 with D56S, N107K
B16: Antibody 67 (bispecific antibody)
chain 1: not shown
chain 2: B1 chain 2
B17: Antibody 65 (bispecific antibody)
chain 1: not shown
chain 2: B1 chain 2
B18: Antibody 61 (bispecific antibody)
chain 1: not shown
chain 2: B1 chain 2
B19: Antibody 60 (bispecific antibody)
chain 1: not shown
chain 2: B1 chain 2
B20: Antibody 69 (bispecific antibody)
chain 1: not shown
chain 2: B1 chain 2 with D56S
B21: Antibody 80 (bispecific antibody)
chain 1: not shown
chain 2: B1 chain 2 with F10S, V11L, G65S, G70D, F87Y, Q100P, L104V, E105D, N107K
B22: Antibody 71 (bispecific antibody)
chain 1: not shown
chain 2: B1 chain 2 with D56S
B23: Antibody 84 (bispecific antibody)
chain 1: not shown
chain 2: B1 chain 2 with F10S, V11L, D56S, G65S, G70D, F87Y, Q100P, L104V, E105D, N107K
B24: Antibody 76 (bispecific antibody)
chain 1: not shown
chain 2: B1 chain 2 with D56S, N107K
B25: Antibody 75 (bispecific antibody)
chain 1: not shown
chain 2: B1 chain 2 with D56S, N107K
B26: Antibody 68 (bispecific antibody)
chain 1: not shown
chain 2: B1 chain 2 with D56S
B27: Antibody 112 (bispecific antibody, human IgG1, kappa, L234A L235A)
chain 1: not shown
chain 2: DIQMTQSPSSLSASVGDRVTITCLASEDIYSYLAWYQQKPGKAPKLLIFAANRLQDGVPSRFSGSGSGTDFTLTISSLQPEDFATYYCLQGSKFPYTFGPGTKVDIKGGGGSGGGGSGGGGSQVQLVQSGAEVKKPGSSVKVSCKASGYTFTRNFIHWIRQAPGQGLEWIGWIFPGDADTEYNQKFSGRATITADKSTSTAYMELSSLRSEDTAVYYCARGNYNYEYFDYWGQGTMVTVSSDKTHTCPPCPAPEAAGGPSVFLFPPKPKDTLMISRTPEVTCVVVDVSHEDPEVKFNWYVDGVEVHNAKTKPREEQYNSTYRVVSVLTVLHQDWLNGKEYKCKVSNKALPAPIEKTISKAKGQPREPQVCTLPPSREEMTKNQVSLSCAVKGFYPSDIAVEWESNGQPENNYKTTPPVLDSDGSFFLVSKLTVDKSRWQQGNVFSCSVMHEALHNHYTQKSLSLSPGK
chain 3: DIQMTQSPSSLSASVGDRVTITCLASEDIYSYLAWYQQKPGKAPKLLIFAANRLQDGVPSRFSGSGSGTDFTLTISSLQPEDFATYYCLQGSKFPYTFGPGTKVDIKRTVAAPSVFIFPPSDEQLKSGTASVVCLLNNFYPREAKVQWKVDNALQSGNSQESVTEQDSKDSTYSLSSTLTLSKADYEKHKVYACEVTHQGLSSPVTKSFNRGECGGGGSGGGGSQVQLVQSGGGVVQPGRSLRLSCKASGYTFTRYTMHWVRQAPGKGLEWIGYINPSRGYTNYNQKVKDRFTISRDNSKNTAFLQMDSLRPEDTGVYFCARYYDDHYSLDYWGQGTPVTVSSGGGGSGGGGSGGGGSDIQMTQSPSSLSASVGDRVTITCSASSSVSYMNWYQQTPGKAPKRWIYDTSKLASGVPSRFSGSGSGTDYTFTISSLQPEDIATYYCQQWSSNPFTFGQGTKLQITR
B28: Antibody 113 (bispecific antibody, human IgG1, kappa, L234A L235A)
chain 1: not shown
chain 2: B27 chain 2
chain 3: B27 chain 3 with D56S
B29: Antibody 81 (bispecific antibody)
chain 1: not shown
chain 2: B1 chain 2 with F10S, V11L, G65S, G70D, F87Y, Q100P, L104V, E105D, N107K
B30: Antibody 99 (bispecific antibody)
chain 1: not shown
chain 2: B1 chain 2 with F10S, V11L, G65S, G70D, F87Y, Q100P, L104V, E105D, N107K
B31: Antibody 87 (bispecific antibody)
chain 1: not shown
chain 2: B1 chain 2 with F10S, V11L, D56S, G65S, G70D, F87Y, Q100P, L104V, E105D, N107K
B32: Antibody 73 (bispecific antibody)
chain 1: not shown
chain 2: B1 chain 2 with D56S
B33: Antibody 93 (bispecific antibody)
chain 1: not shown
chain 2: B1 chain 2 with F10S, V11L, D56S, G65S, G70D, F87Y, Q100P, L104V, E105D, N107K
B34: Antibody 97 (bispecific antibody)
chain 1: not shown
chain 2: B1 chain 2 with F10S, V11L, G65S, G70D, F87Y, Q100P, L104V, E105D, N107K
B35: Antibody 95 (bispecific antibody)
chain 1: not shown
chain 2: B1 chain 2 with F10S, V11L, G65S, G70D, F87Y, Q100P, L104V, E105D, N107K
B36: Antibody 79 (bispecific antibody)
chain 1: not shown
chain 2: B1 chain 2 with N107K
B37: Antibody 98 (bispecific antibody)
chain 1: not shown
chain 2: B1 chain 2 with F10S, V11L, G65S, G70D, F87Y, Q100P, L104V, E105D, N107K
B38: Antibody 96 (bispecific antibody)
chain 1: not shown
chain 2: B1 chain 2 with F10S, V11L, G65S, G70D, F87Y, Q100P, L104V, E105D, N107K

What follows are binders tested against T1, Ins 5 type mutant CALR protein on UT-7/TPO CALR Ins 5 cells (UniProt P27797 18-417) (assay: cell-based or functional assay).
T1 sequence (looked up): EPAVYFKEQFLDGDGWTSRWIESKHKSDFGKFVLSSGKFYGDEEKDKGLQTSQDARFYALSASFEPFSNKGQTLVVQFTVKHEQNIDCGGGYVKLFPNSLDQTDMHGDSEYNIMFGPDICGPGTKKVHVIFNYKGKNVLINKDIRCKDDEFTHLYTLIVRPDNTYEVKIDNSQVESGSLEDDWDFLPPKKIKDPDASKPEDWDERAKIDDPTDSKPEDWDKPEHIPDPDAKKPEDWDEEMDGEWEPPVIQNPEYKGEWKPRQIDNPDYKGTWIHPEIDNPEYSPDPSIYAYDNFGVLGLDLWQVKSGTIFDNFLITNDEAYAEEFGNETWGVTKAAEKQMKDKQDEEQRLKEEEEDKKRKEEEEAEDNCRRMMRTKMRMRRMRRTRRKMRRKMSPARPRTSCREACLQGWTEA

Point of comparison: B21, “EC50 of cytotoxic activity (pM)” value 28 pM. Against it:
- B1 — higher, 91 pM
- B2 — lower, 22 pM
- B3 — higher, 31 pM
- B4 — higher, 110 pM
- B5 — higher, 93 pM
- B6 — higher, 197 pM
- B7 — higher, 469 pM
- B8 — higher, 829 pM
- B9 — higher, 129 pM
- B10 — higher, 115 pM
- B11 — higher, 507 pM
- B12 — higher, 398 pM
- B13 — higher, 1530 pM
- B14 — higher, 45 pM
- B15 — higher, 63 pM
- B16 — higher, 5900 pM
- B17 — higher, 397 pM
- B18 — higher, 9760 pM
- B19 — higher, 77 pM
- B20 — higher, 162 pM
- B22 — higher, 448 pM
- B23 — higher, 277 pM
- B24 — higher, 300 pM
- B25 — higher, 77 pM
- B26 — lower, 27 pM

Target: T2, protein having an Fc region and a His-tag added to the N-terminus of SEQ ID NO: 1
T2 construct: also called mutant CALR protein (antigen of the BLItz measurement); not shown: Fc region and His-tag at the N-terminus
T2 chain: RRMMRTKMRMRRM
Assay: BLItz biolayer interferometry, Fc/His-SEQ ID NO: 1 protein on the biosensor
Protocol: As another method, measurements were performed using the molecular interaction analysis system BLItz (ForteBio), which applies biolayer interferometry […]. Specifically, a protein having an Fc region and a His-tag added to the N-terminus of SEQ ID NO: 1 was immobilized at a concentration of 0.1 mg/mL using the Anti-Penta-HIS or ProteinA biosensor (ForteBio). Subsequently, the antibodies 1 to 114 made were prepared at a concentration of 500, 100, and 50 nM and reacted to acquire the dissociation constant.

Point of comparison: B6, Kd 262 pM. Against it:
- B27 — lower, < 1 pM
- B28 — 8.1-fold lower, 32.4 pM
- B1 — lower, < 1 pM
- B2 — lower, < 1 pM
- B29 — lower, < 1 pM
- B3 — lower, < 1 pM
- B30 — lower, < 1 pM
- B4 — lower, < 1 pM
- B5 — lower, < 1 pM
- B7 — lower, < 1 pM
- B8 — lower, < 1 pM
- B31 — lower, < 1 pM
- B9 — lower, < 1 pM
- B10 — lower, < 1 pM
- B11 — lower, < 1 pM
- B12 — lower, < 1 pM
- B32 — lower, < 1 pM
- B33 — lower, < 1 pM
- B13 — lower, < 1 pM
- B34 — lower, < 1 pM
- B14 — lower, < 1 pM
- B15 — lower, < 1 pM
- B16 — lower, < 1 pM
- B17 — lower, < 1 pM
- B35 — lower, < 1 pM
- B18 — lower, < 1 pM
- B19 — lower, < 1 pM
- B20 — lower, < 1 pM
- B21 — lower, < 1 pM
- B22 — 2.1-fold higher, 554 pM
- B23 — lower, < 1 pM
- B24 — lower, < 1 pM
- B25 — lower, < 1 pM
- B36 — lower, < 1 pM
- B37 — lower, < 1 pM
- B38 — lower, < 1 pM
- B26 — lower, < 1 pM
